Key:
[1] = system: spleens of transgenic mice; assay: ISG expression in spleens of Eu-lck human IL-29 transgenic mice (real-time PCR); format: in vivo, mouse; conditions: spleens of Eu-lck IL-29 transgenic mice; fold expression relative to HPRT; average of two mice
Description: This promoter is active in T cells and B cells. Transgenic mice and their non-transgenic littermates (n=2/gp) were sacrificed at about 10 weeks of age. Spleens of mice were isolated. RNA was isolated from cell pellets using RNAEasy-kit® (Qiagen). RNA was treated with DNase to clean RNA of any contaminating DNA. cDNA was generated using Perkin-Elmer RT® mix. ISG gene induction was evaluated by real-time PCR using primers and probes (5′ FAM, 3′ NFQ) specific for mouse OAS, Pkr and Mx1. To obtain quantitative data, HPRT real-time PCR was duplexed with ISG PCR. Furthermore, a standard curve was obtained using known amounts of IFN stimulated mouse PBLs. All data are shown as expression relative to internal HPRT expression.

Vaccinia virus = format: cell-based; conditions: Vero cells, Neutral Red Assay
Coxsackie B4 virus = format: cell-based; conditions: KB cells, Neutral Red Assay
OAS = OAS activity in serum and plasma of mice (OAS radioimmunoassay); format: in vivo, mouse; conditions: C57BL/6 mice
Description: Serum and plasma were isolated from mice at varying time points, and OAS activity was measured using the OAS radioimmunoassay (RIA) kit from Eiken Chemicals (Tokyo, Japan).

Rhino 9 = format: cell-based, rhino virus; conditions: Rhino 9, HeLa cells, Neutral Red Assay
[2] = system: Influenza (type A [H3N2]); format: cell-based; conditions: Maden-Darby Canine Kidney
West Nile virus = format: cell-based; conditions: Vero cells, Neutral Red Assay
[3] = system: liver, spleen and blood of mice; assay: ISG gene expression (OAS, Pkr, Mx1) in liver, spleen and blood of injected C57BL/6 mice (real-time PCR); format: in vivo, mouse; conditions: for OAS-1 hr / OAS-6 hr / OAS-24 hr / OAS-48 hr: single injection of 250 μg i.v., average of 5 animals; for OAS (24 hr): fold expression relative to HPRT
Description: Mice were sacrificed at various time points (1 hr-48 hr). Spleens and livers were isolated from mice, and RNA was isolated. RNA was also isolated from the blood cells. The cells were pelleted and RNA isolated from pellets using RNAEasy®-kit (Qiagen). RNA was treated with DNase (Amicon) to rid RNA of any contaminating DNA. cDNA was generated using Perkin-Elmer RT mix (Perkin-Elmer). ISG gene induction was measured by real-time PCR using primers and probes specific for mouse OAS, Pkr and Mx1. To obtain quantitative data, HPRT real-time PCR was duplexed with ISG PCR. A standard curve was calculated using known amounts of IFN-stimulated mouse PBLs. All data are shown as expression relative to internal HPRT expression.

Polio virus = format: cell-based; conditions: Vero cells, Neutral Red Assay
[4] = system: Venezuelan equine encephalitis virus; format: cell-based; conditions: Vero
[5] = system: Influenza (type A [H3N2]); format: cell-based; conditions: Maden-Darby Canine Kidney cells, Neutral Red Assay
AML-12 cells = assay: ISG induction in the mouse liver cell line AML-12 (real-time PCR); format: cell-based; conditions: AML-12, 20 ng/ml, 48 hour time point; mRNA relative to HPRT gene expression
Description: AML-12 cells were plated in 6-well plates in complete DMEM media at a concentration of 2×10^6 cells/well. […] As a control, cells were either stimulated with mouse IFNα (positive control) or unstimulated (negative). […] RNA was isolated from cell pellets using RNAEasy-kit® (Qiagen, Valencia, Calif.). RNA was treated with DNase (Millipore, Billerica, Mass.) to clean RNA of any contaminating DNA. cDNA was generated using Perkin-Elmer RT mix. ISG gene induction was evaluated by real-time PCR using primers and probes specific for mouse OAS, Pkr and Mx1. To obtain quantitative data, HPRT real-time PCR was duplexed with ISG PCR. A standard curve was obtained using known amounts of RNA from IFN-stimulated mouse PBLs. All data are shown as expression relative to internal HPRT expression.

B1: IL-29: human IL-29 cytokine polypeptide (zcyto21), e.g. SEQ ID NO:20 (protein, listed as Homo sapiens)
chain: MAAAWTVVLVTLVLGLAVAGPVPTSKPTTTGKGCHIGRFKSLSPQELASFKKARDALEESLKLKNWSCSSPVFPGNWDLRLLQVRERPVALEAELALTLKVLEAAAGPALEDVLDQPLHTLHHILSQLQACIQPQPTAGPRPRGRLHHWLHRLQEAPKKESAGCLEASVTFNLFRLLTRDLKYVADGNLCLRTSTHPEST
modifications: SIGNAL (1)...(19)
Mx1 [1]: 21 | OAS [1]: 12 | PkR [1]: 8 | EC50 NR (Vaccinia virus): >10 µg/mL | IC50 NR (Vaccinia virus): >10 µg/mL | EC50 NR (Coxsackie B4 virus): >10 µg/mL | IC50 NR (Coxsackie B4 virus): >10 µg/mL | OAS activity in the serum and plasma of mice (OAS; i.v, 10 μg-250 μg): induced OAS activity | OAS-1 hr (OAS activity) (OAS; plasma, 1 hr, 250 μg i.v.): 80 pmol/dL of plasma | OAS-6 hr (OAS activity) (OAS; plasma, 6 hr, 250 μg i.v.): 80 pmol/dL of plasma | OAS-24 hr (OAS activity) (OAS; plasma, 24 hr, 250 μg i.v.): 180 pmol/dL of plasma | OAS-48 hr (OAS activity) (OAS; plasma, 48 hr, 250 μg i.v.): 200 pmol/dL of plasma | EC50 NR (Rhino 9): 0.982 µg/mL | IC50 NR (Rhino 9): >10 µg/mL | EC50 Visual [2]: >10 µg/mL | IC50 Visual ([2]; numerator of SI): >10 µg/mL | EC50 NR (West Nile virus): 0.00025 µg/mL | IC50 NR (West Nile virus): >10 µg/mL | sustained expression of ISGs above control mice ([3]; C57BL/6 mice): up to 48 hours | time of peak expression of ISGs after injection ([3]; C57BL/6 mice): 1 to 6 h | ISG gene expression (OAS, Pkr, Mx1) in the livers, spleen and blood of mice ([3]; C57BL/6 mice, i.p or i.v, 10 μg-250 μg): induced ISG gene expression | OAS-1 hr ([3]; blood, C57BL/6 mice): 12 fold expression relative to HPRT gene expression | OAS-6 hr ([3]; blood, C57BL/6 mice): 18 fold expression relative to HPRT gene expression | OAS-24 hr ([3]; blood, C57BL/6 mice): 11 fold expression relative to HPRT gene expression | OAS-48 hr ([3]; blood, C57BL/6 mice): 10 fold expression relative to HPRT gene expression | OAS-1 hr ([3]; liver, C57BL/6 mice): 2.5 fold expression relative to HPRT gene expression | OAS-6 hr ([3]; liver, C57BL/6 mice): 4 fold expression relative to HPRT gene expression | OAS-24 hr ([3]; liver, C57BL/6 mice): 2.5 fold expression relative to HPRT gene expression | OAS-48 hr ([3]; liver, C57BL/6 mice): 2.8 fold expression relative to HPRT gene expression | OAS (24 hr) ([3]; mice injected with 10 μg): 3.7 | OAS (24 hr) ([3]; mice injected with 50 μg): 4.2 | OAS (24 hr) ([3]; mice injected with 250 μg): 6 | OAS-1 hr ([3]; spleen, C57BL/6 mice): 4 fold expression relative to HPRT gene expression | OAS-6 hr ([3]; spleen, C57BL/6 mice): 6 fold expression relative to HPRT gene expression | OAS-24 hr ([3]; spleen, C57BL/6 mice): 3.2 fold expression relative to HPRT gene expression | OAS-48 hr ([3]; spleen, C57BL/6 mice): 3.2 fold expression relative to HPRT gene expression | EC50 NR (Polio virus): >10 µg/mL | IC50 NR (Polio virus): >10 µg/mL | EC50 Visual [4]: 0.012 µg/mL | IC50 Visual ([4]; numerator of SI): >10 µg/mL | EC50 NR [5]: >10 µg/mL | IC50 NR [5]: >10 µg/mL | Mx1 (AML-12 cells): 0.07 | OAS (AML-12 cells): 0.04 | PkR (AML-12 cells): 0.02
